This note sets out measurements from article PMC4259358, “Functional Characterization of Nuclear Localization and Export Signals in Hepatitis C Virus Proteins and Their Role in the Membranous Web” (PLoS ONE, 2014).

Test [1] deals with NS5A NLS synthetic peptide (fused to penetratin) (hepatitis C virus | not stated). Kind of test: ELISA; plates coated with synthetic peptide (10 µg/ml, carbonate buffer pH 9.6); increasing concentrations of recombinant NTF, 2 h, room temperature; anti-HIS detection; apparent Kd. As to conditions: remark: other sources report otherwise.
The target in test [2] is NS3 NLS 1 synthetic peptide (fused to penetratin) (hepatitis C virus | not stated). The description is as above. As to conditions: remark: other sources report otherwise.
Test [3] addresses NS3 NLS 2 synthetic peptide (fused to penetratin) (hepatitis C virus | not stated). The description is as above. As to conditions: remark: other sources report otherwise.
In test [4] the target is Core NLS 4 synthetic peptide (fused to penetratin) (hepatitis C virus | not stated). The test is described as above. As to conditions: remark: other sources report otherwise.
In test [5] the target is T1, IPO5 (Homo sapiens), O00410.
T1 chain: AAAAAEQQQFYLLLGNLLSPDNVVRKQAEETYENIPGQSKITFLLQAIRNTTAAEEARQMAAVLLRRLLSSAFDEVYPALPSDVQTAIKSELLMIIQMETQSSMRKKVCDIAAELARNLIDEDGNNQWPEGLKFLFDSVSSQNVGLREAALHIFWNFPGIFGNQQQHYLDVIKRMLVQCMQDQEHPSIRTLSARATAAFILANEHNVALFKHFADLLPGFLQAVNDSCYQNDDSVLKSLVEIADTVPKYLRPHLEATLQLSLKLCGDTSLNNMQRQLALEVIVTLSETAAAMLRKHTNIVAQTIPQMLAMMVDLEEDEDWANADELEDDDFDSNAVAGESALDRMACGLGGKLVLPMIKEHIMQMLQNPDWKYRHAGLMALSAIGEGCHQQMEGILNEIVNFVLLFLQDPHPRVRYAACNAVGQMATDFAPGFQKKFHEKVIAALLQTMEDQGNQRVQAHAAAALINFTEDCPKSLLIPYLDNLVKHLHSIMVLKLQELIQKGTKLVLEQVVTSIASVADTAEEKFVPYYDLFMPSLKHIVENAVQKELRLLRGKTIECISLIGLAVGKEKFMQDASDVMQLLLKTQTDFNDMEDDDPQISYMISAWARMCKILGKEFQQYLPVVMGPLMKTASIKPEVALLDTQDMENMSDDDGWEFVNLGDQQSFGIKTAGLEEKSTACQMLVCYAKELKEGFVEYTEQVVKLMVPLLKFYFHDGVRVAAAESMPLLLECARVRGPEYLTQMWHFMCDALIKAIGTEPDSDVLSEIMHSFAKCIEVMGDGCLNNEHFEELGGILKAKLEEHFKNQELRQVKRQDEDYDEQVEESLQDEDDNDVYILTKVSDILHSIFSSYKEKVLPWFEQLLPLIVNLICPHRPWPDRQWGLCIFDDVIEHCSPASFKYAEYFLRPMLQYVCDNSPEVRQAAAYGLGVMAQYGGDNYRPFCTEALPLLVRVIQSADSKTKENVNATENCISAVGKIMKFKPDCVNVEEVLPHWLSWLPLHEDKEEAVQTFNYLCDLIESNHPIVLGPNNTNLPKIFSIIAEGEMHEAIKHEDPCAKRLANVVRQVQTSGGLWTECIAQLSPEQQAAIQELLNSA
As to conditions: modification not given.

B1: recombinant IPO5 (importin β3/kap β3), O00410-1 1-1097 (natural protein)
chain: MAAAAAEQQQFYLLLGNLLSPDNVVRKQAEETYENIPGQSKITFLLQAIRNTTAAEEARQMAAVLLRRLLSSAFDEVYPALPSDVQTAIKSELLMIIQMETQSSMRKKVCDIAAELARNLIDEDGNNQWPEGLKFLFDSVSSQNVGLREAALHIFWNFPGIFGNQQQHYLDVIKRMLVQCMQDQEHPSIRTLSARATAAFILANEHNVALFKHFADLLPGFLQAVNDSCYQNDDSVLKSLVEIADTVPKYLRPHLEATLQLSLKLCGDTSLNNMQRQLALEVIVTLSETAAAMLRKHTNIVAQTIPQMLAMMVDLEEDEDWANADELEDDDFDSNAVAGESALDRMACGLGGKLVLPMIKEHIMQMLQNPDWKYRHAGLMALSAIGEGCHQQMEGILNEIVNFVLLFLQDPHPRVRYAACNAVGQMATDFAPGFQKKFHEKVIAALLQTMEDQGNQRVQAHAAAALINFTEDCPKSLLIPYLDNLVKHLHSIMVLKLQELIQKGTKLVLEQVVTSIASVADTAEEKFVPYYDLFMPSLKHIVENAVQKELRLLRGKTIECISLIGLAVGKEKFMQDASDVMQLLLKTQTDFNDMEDDDPQISYMISAWARMCKILGKEFQQYLPVVMGPLMKTASIKPEVALLDTQDMENMSDDDGWEFVNLGDQQSFGIKTAGLEEKSTACQMLVCYAKELKEGFVEYTEQVVKLMVPLLKFYFHDGVRVAAAESMPLLLECARVRGPEYLTQMWHFMCDALIKAIGTEPDSDVLSEIMHSFAKCIEVMGDGCLNNEHFEELGGILKAKLEEHFKNQELRQVKRQDEDYDEQVEESLQDEDDNDVYILTKVSDILHSIFSSYKEKVLPWFEQLLPLIVNLICPHRPWPDRQWGLCIFDDVIEHCSPASFKYAEYFLRPMLQYVCDNSPEVRQAAAYGLGVMAQYGGDNYRPFCTEALPLLVRVIQSADSKTKENVNATENCISAVGKIMKFKPDCVNVEEVLPHWLSWLPLHEDKEEAVQTFNYLCDLIESNHPIVLGPNNTNLPKIFSIIAEGEMHEAIKHEDPCAKRLANVVRQVQTSGGLWTECIAQLSPEQQAAIQELLNSA
Regarding B1, the Kd in test [1] was 32.3 nM; in test [2], 33.8 nM; in test [3], 35.8 nM; in test [4], 105 nM.
In test [5], TRQARRNRRRRWRERQR [HIV-1 Rev NLS peptide NLS peptide, P04325] had a Kd of 44 nM.
